Measurements reported in US20220143024A1, “METHODS OF USING IMIPRIDONES” (Board of Regents, The University of Texas System, priority 2019, published 2022).

How the values were obtained:
Test in all cases: BioID-MS +ONC201
[1] = molecular target: NUDT1 (human) (UniProt P36639)
[2] = molecular target: AK3 (human) (UniProt Q9UIJ7)
[3] = molecular target: ECHS1 (human) (UniProt P30084)
[4] = molecular target: NFS1 (human) (UniProt Q9Y697)
[5] = molecular target: NDUFAF2 (human) (UniProt Q8N183)
[6] = molecular target: RTN4IP1 (human) (UniProt Q8WWV3)
[7] = molecular target: PITRM1 (human) (UniProt Q5JRX3)
[8] = molecular target: ALDH1L2 (human) (UniProt Q3SY69)
[9] = molecular target: FMC1 (human) (UniProt Q96HJ9)
[10] = molecular target: VWA8 (human) (UniProt A3KMH1)
[11] = molecular target: MRPL10 (human) (UniProt Q7Z7H8)
[12] = molecular target: GFM1 (human) (UniProt Q96RP9)
[13] = molecular target: MRPS6 (human) (UniProt P82932)
[14] = molecular target: NARS2 (human) (UniProt Q96I59)
[15] = molecular target: PPA2 (human) (UniProt Q9H2U2)
[16] = molecular target: COQ6 (human) (UniProt Q9Y2Z9)
[17] = molecular target: AFG3L2 (human) (UniProt Q9Y4W6)
[18] = molecular target: GTPBP3 (human) (UniProt Q969Y2)
[19] = molecular target: ACAD9 (human) (UniProt Q9H845)
[20] = molecular target: C20orf72 (human) (UniProt Q9BQP7)
[21] = molecular target: LYRM7 (human) (UniProt Q5U5X0)
[22] = molecular target: CLYBL (human) (UniProt Q8N0X4)
[23] = molecular target: C2orf56 (human) (UniProt Q7L592)
[24] = molecular target: MDH2 (human) (UniProt P40926)
[25] = molecular target: ACN9 (human) (UniProt Q9NRP4)
[26] = molecular target: ABCB7 (human) (UniProt O75027)
[27] = molecular target: PYCR1 (human) (UniProt P32322)
[28] = molecular target: ALDH2 (human) (UniProt P05091)
[29] = molecular target: COQ8A (human) (UniProt Q8NI60)
[30] = molecular target: ACAD10 (human) (UniProt Q6JQN1)
[31] = molecular target: BCKDHB (human) (UniProt P21953)
[32] = molecular target: POLRMT (human) (UniProt O00411)
[33] = molecular target: MRPS7 (human) (UniProt Q9Y2R9)
[34] = molecular target: T1MM44 (human) (UniProt O43615)
[35] = molecular target: MRPS36 (human) (UniProt P82909)
[36] = molecular target: IARS2 (human) (UniProt Q9NSE4)
[37] = molecular target: METTL17 (human) (UniProt Q9H7H0)
[38] = molecular target: MRPS15 (human) (UniProt P82914)
[39] = molecular target: NDUFAF5 (human) (UniProt Q5TEU4)
[40] = molecular target: ETFB (human) (UniProt P38117)
[41] = molecular target: FASTKD5 (human) (UniProt Q7L8L6)
[42] = molecular target: TBRG4 (human) (UniProt Q969Z0)
[43] = molecular target: HINT2 (human) (UniProt Q9BX68)
[44] = molecular target: HIBCH (human) (UniProt Q6NVY1)
[45] = molecular target: MRPS16 (human) (UniProt Q9Y3D3)
[46] = molecular target: PMPCA (human) (UniProt Q10713)
[47] = molecular target: NDUFS7 (human) (UniProt O75251)
[48] = molecular target: THEM4 (human) (UniProt Q5T1C6)
[49] = molecular target: NDUFA6 (human) (UniProt P56556)
[50] = molecular target: SUCLG1 (human) (UniProt P53597)
[51] = molecular target: SSBP1 (human) (UniProt Q04837)

Sequence of COQ6 (human) (Q9Y2Z9 29-468 limits assumed): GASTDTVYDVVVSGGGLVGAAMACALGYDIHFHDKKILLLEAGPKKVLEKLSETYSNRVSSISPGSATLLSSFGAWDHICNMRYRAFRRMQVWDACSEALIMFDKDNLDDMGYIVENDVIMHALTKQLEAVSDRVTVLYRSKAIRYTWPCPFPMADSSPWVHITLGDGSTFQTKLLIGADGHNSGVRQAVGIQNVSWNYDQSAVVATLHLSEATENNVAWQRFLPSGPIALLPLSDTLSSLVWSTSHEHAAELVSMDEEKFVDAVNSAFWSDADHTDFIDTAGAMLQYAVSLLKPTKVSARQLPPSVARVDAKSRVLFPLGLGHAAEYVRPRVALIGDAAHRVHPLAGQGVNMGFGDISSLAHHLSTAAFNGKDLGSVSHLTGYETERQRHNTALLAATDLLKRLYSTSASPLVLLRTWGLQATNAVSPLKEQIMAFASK
Sequence of VWA8 (human) (A3KMH1 29-1905 limits assumed): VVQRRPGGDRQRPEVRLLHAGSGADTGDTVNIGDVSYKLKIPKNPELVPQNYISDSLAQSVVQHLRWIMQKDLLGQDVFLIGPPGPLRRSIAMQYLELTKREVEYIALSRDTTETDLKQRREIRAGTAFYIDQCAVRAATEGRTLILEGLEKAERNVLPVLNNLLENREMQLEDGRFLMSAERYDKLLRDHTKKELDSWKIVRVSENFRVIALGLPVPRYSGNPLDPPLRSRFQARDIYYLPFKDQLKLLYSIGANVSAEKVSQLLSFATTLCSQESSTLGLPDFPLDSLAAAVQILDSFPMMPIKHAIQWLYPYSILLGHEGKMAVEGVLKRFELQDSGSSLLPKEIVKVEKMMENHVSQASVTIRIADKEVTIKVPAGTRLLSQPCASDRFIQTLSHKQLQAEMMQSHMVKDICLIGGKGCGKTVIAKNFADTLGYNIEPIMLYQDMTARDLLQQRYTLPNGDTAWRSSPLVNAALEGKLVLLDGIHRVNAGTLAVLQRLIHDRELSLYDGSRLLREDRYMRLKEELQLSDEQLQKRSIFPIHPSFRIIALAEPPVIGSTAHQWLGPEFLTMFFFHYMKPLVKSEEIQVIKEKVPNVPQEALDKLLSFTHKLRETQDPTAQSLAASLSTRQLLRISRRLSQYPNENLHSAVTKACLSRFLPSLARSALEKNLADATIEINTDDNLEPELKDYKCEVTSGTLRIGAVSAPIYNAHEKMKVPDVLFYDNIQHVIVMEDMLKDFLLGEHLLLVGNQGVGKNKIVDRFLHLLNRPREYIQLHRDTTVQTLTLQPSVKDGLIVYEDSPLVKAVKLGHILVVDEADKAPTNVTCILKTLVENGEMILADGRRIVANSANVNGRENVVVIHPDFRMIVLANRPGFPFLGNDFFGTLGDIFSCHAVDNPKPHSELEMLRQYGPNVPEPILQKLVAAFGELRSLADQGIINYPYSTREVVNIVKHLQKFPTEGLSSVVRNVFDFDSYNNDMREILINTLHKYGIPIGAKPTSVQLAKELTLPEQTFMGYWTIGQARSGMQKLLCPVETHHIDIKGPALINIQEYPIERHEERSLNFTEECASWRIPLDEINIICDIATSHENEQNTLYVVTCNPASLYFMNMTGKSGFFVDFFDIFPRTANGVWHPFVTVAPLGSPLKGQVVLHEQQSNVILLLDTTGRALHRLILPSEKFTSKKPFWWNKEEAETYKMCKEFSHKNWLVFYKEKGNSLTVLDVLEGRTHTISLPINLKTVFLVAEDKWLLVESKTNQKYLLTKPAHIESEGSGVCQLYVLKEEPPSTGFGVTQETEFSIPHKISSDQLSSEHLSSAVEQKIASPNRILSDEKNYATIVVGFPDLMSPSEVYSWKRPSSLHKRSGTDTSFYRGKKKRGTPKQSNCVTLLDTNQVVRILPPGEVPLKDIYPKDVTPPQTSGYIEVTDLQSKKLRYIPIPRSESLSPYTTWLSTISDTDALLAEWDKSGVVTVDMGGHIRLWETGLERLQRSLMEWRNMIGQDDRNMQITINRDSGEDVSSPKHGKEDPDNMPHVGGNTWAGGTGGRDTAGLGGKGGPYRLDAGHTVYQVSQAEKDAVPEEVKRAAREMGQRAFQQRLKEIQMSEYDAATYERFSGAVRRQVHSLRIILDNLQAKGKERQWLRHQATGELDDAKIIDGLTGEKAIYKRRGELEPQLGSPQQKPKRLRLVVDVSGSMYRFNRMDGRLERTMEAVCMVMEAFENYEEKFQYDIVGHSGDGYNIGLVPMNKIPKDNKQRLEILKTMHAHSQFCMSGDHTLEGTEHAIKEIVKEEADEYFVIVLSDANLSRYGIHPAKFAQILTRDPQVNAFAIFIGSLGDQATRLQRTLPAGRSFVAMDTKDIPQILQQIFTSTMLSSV
Sequence of HIBCH (human) (Q6NVY1 33-386 limits assumed): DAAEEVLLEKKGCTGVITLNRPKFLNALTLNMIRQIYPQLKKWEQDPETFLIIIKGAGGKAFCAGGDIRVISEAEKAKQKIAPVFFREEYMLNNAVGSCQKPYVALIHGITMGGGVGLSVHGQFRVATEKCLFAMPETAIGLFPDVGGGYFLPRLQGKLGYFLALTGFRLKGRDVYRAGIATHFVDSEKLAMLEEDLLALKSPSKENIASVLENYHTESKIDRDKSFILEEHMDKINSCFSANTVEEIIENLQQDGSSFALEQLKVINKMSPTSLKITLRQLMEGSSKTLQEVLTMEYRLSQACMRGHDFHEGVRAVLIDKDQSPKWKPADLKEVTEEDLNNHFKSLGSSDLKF
Sequence of AK3 (human) (Q9UIJ7 whole entry): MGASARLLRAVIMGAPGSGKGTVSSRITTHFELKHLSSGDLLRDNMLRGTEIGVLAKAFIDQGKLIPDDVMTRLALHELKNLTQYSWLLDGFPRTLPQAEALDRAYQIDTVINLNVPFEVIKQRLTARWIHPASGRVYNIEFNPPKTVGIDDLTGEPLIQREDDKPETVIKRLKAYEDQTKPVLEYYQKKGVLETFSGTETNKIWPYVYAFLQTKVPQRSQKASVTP
Sequence of GTPBP3 (human) (Q969Y2 21-492 limits assumed): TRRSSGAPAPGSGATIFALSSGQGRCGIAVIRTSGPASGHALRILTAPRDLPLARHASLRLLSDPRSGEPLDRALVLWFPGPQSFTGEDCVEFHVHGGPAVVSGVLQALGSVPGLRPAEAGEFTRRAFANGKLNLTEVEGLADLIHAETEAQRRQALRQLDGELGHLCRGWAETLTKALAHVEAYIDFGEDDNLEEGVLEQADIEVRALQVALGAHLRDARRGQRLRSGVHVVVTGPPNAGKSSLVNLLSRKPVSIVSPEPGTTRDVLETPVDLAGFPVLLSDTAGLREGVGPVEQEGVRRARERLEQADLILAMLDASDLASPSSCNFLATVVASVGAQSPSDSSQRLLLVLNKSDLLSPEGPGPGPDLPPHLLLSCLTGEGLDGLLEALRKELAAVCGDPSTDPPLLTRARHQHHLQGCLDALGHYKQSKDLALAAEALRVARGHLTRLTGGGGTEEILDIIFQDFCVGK
Sequence of BCKDHB (human) (P21953 51-392 limits assumed): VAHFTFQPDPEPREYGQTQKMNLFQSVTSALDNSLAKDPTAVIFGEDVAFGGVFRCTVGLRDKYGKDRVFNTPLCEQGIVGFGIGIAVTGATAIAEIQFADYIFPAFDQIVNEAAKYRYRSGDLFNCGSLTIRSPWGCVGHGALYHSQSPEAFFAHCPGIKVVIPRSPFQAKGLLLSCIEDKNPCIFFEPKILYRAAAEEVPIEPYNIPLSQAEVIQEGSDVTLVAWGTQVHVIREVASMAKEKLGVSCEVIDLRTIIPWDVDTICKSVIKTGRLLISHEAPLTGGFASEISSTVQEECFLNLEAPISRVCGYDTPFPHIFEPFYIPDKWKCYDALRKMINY
Sequence of ETFB (human) (P38117 2-255 limits assumed): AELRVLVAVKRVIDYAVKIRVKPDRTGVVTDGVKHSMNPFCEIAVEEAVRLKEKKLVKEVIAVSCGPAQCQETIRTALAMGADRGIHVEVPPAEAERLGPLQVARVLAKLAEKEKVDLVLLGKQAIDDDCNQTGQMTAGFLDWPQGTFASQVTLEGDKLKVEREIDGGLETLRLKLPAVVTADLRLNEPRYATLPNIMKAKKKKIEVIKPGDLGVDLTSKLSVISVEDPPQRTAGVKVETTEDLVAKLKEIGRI
Sequence of RTN4IP1 (human) (Q8WWV3 41-396 limits assumed): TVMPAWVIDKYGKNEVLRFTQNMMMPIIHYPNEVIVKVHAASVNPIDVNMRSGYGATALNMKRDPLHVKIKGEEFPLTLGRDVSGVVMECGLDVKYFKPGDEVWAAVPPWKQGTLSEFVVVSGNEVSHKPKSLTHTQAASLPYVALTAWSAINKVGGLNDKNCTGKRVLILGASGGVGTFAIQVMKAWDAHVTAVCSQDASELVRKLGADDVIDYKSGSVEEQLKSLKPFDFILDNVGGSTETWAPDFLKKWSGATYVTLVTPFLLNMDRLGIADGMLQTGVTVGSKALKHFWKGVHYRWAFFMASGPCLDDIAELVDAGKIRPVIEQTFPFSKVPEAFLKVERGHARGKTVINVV
Sequence of CLYBL (human) (Q8N0X4 23-340 limits assumed): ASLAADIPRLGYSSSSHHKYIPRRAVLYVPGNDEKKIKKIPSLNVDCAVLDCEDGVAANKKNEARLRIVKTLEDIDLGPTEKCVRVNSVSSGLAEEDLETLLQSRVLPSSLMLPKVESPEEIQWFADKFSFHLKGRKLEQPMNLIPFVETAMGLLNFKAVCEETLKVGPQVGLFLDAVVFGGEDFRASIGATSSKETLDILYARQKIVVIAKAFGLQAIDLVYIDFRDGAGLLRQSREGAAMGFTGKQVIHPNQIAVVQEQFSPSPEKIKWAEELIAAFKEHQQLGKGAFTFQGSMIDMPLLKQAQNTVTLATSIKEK
Sequence of LYRM7 (human) (Q5U5X0 whole entry): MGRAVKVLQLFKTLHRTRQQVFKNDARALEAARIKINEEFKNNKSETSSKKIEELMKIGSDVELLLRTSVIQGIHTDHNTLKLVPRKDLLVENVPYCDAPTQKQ
Sequence of THEM4 (human) (Q5T1C6 37-240 limits assumed): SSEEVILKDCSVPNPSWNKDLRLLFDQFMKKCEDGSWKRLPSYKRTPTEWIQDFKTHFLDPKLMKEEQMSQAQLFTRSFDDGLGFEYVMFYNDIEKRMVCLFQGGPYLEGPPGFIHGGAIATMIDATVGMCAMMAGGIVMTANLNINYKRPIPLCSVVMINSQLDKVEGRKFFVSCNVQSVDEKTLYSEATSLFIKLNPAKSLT

With “FlagBirA-ClpP (WT) (from UniProt P06709 1-321; Q16740 57-277) (enzyme)” the Log2 Fold change (vs control) [1] was -1 log2, the Log2 Fold change (vs control) [2] was -1.05 log2 and the Log2 Fold change (vs control) [3] was -1.49 log2. For the same substance, the Log2 Fold change (vs control) [4] was 0.55 log2, the Log2 Fold change (vs control) [5] was -7.94 log2 and the Log2 Fold change (vs control) [6] was -1.5 log2. For the same substance, the Log2 Fold change (vs control) [7] was -4.25 log2, the Log2 Fold change (vs control) [8] was -6.04 log2 and the Log2 Fold change (vs control) [9] was -6.86 log2. It also gave a Log2 Fold change (vs control) [10] of 1.69 log2, a Log2 Fold change (vs control) [11] of -4.46 log2 and a Log2 Fold change (vs control) [12] of -1.08 log2. The Log2 Fold change (vs control) [13] was -4.52 log2, the Log2 Fold change (vs control) [14] was -1.36 log2 and the Log2 Fold change (vs control) [15] was -1.38 log2. It also gave a Log2 Fold change (vs control) [16] of -3.7 log2, a Log2 Fold change (vs control) [17] of -0.14 log2 and a Log2 Fold change (vs control) [18] of -2.58 log2. The Log2 Fold change (vs control) [19] was -0.76 log2, the Log2 Fold change (vs control) [20] was -3.52 log2 and the Log2 Fold change (vs control) [21] was -1.38 log2. It also gave a Log2 Fold change (vs control) [22] of -1.63 log2, a Log2 Fold change (vs control) [23] of -2.44 log2 and a Log2 Fold change (vs control) [24] of -0.24 log2. It also gave a Log2 Fold change (vs control) [25] of -5.46 log2, a Log2 Fold change (vs control) [26] of -0.45 log2 and a Log2 Fold change (vs control) [27] of -2.16 log2. For the same substance, the Log2 Fold change (vs control) [28] was -0.17 log2, the Log2 Fold change (vs control) [29] was -4.74 log2 and the Log2 Fold change (vs control) [30] was -4.09 log2. The Log2 Fold change (vs control) [31] was -4.91 log2, the Log2 Fold change (vs control) [32] was -2.95 log2 and the Log2 Fold change (vs control) [33] was -2.77 log2. For the same substance, the Log2 Fold change (vs control) [34] was -0.52 log2, the Log2 Fold change (vs control) [35] was -2.58 log2 and the Log2 Fold change (vs control) [36] was -2.38 log2. For the same substance, the Log2 Fold change (vs control) [37] was -3.58 log2, the Log2 Fold change (vs control) [38] was -4.91 log2 and the Log2 Fold change (vs control) [39] was -0.68 log2. It also gave a Log2 Fold change (vs control) [40] of -1.35 log2, a Log2 Fold change (vs control) [41] of -4.91 log2 and a Log2 Fold change (vs control) [42] of 0.28 log2. For the same substance, the Log2 Fold change (vs control) [43] was -1.17 log2, the Log2 Fold change (vs control) [44] was -1.55 log2 and the Log2 Fold change (vs control) [45] was -3.81 log2. The Log2 Fold change (vs control) [46] was -1.21 log2, the Log2 Fold change (vs control) [47] was -1.81 log2 and the Log2 Fold change (vs control) [48] was -0.88 log2. It also gave a Log2 Fold change (vs control) [49] of -1.08 log2, a Log2 Fold change (vs control) [50] of -1.44 log2 and a Log2 Fold change (vs control) [51] of 0.07 log2.
